{"source": "FireProtDB (doi:10.1371/journal.pone.0110439)", "details": "Homo sapiens, pH 7, transition: 2, structure 1DXX; for ddG of mutation (higher = less stable) / unfolding free energy: Urea; for Tm / change of melting temperature, mutant - wild type (higher = more stable): Thermal", "key": {"[1]": {"details": "25 °C, Fluorescence, PBS, reversible: yes"}, "[2]": {"details": "CD, sodium phosphate 0.1 M, NaCl 0.15 M, reversible: yes"}, "[3]": {"details": "Fluorescence, sodium phosphate 0.1 M, NaCl 0.15 M, reversible: yes"}}, "data": [{"substance": "Dystrophin, P11532 K18N", "values": [{"measurement": "ddG of mutation (higher = less stable)", "setting": "[1]", "result": 3.7, "unit": "kcal/mol"}, {"measurement": "unfolding free energy", "setting": "[1]", "result": 7.5, "unit": "kcal/mol"}, {"measurement": "Tm", "setting": "CD, PBS, reversible: no", "result": 57.6, "unit": "°C"}, {"measurement": "change of melting temperature, mutant - wild type (higher = more stable)", "setting": "CD, PBS, reversible: no", "result": -3.4, "unit": "°C"}, {"measurement": "Tm", "setting": "[2]", "result": 57.6, "unit": "°C"}, {"measurement": "change of melting temperature, mutant - wild type (higher = more stable)", "setting": "[2]", "result": -3.4, "unit": "°C"}, {"measurement": "ddG of mutation (higher = less stable)", "setting": "[2]", "result": 3.7, "unit": "kcal/mol"}, {"measurement": "unfolding free energy", "setting": "[2]", "result": 7.5, "unit": "kcal/mol"}, {"measurement": "ddG of mutation (higher = less stable)", "setting": "[3]", "result": 3.7, "unit": "kcal/mol"}, {"measurement": "unfolding free energy", "setting": "[3]", "result": 7.5, "unit": "kcal/mol"}]}]}
